Measurements as given in US20240270846A1 (published 2024).
Substitutions are numbered along the chain they refer to. Names may count otherwise. One block for each binder: values may come before it. Where no end group is shown, it is not given here.

How the values were obtained:
[1] = target: T1, biotin-labeled human CD137 fused to human IgG1 Fc fragment (human CD137-Fc) (human, biotin-labeled); assay: bead ELISA on biotin-human CD137-Fc; decrease of signal with free CD3 epsilon as competitor against free Fc
T1 construct: also called biotin-human CD137-Fc

[2] = target: T1, biotin-labeled human CD137 fused to …; assay: bead ELISA on biotin-human CD137-Fc, 250 ng IgG; free CD3 epsilon 62.5 pmol as competitor
[3] = target: T1, biotin-labeled human CD137 fused to …; assay: bead ELISA on biotin-human CD137-Fc, 250 ng IgG; free human IgG1 Fc 62.5 pmol as control competitor
[4] = target: T2, biotinylated CD3 epsilon epitope peptide (UniProt P07766 22-48, biotinylated); assay: SPR (Biacore); biotinylated CD3 epsilon epitope peptide on chip via streptavidin, antibody as analyte
T2 chain: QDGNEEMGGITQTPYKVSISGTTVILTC

[5] = target: human CD137 expressed on cells (human, UniProt Q07011 24-255); assay: cell-based or functional assay
[6] = target: T3, CD3 epsilon peptide antigen (human, also: biotin-labeled as coated antigen, free as competitor, biotin position not given here); assay: ECL, IgG with biotinylated antigen
T3 construct: also called biotin-labeled CD3 epsilon peptide; CD3 peptide
T3 peptide: QDGNEEMGGITQTPY

[7] = target: T4, biotin-labeled human CD137 fused to human IgG1 Fc fragment (human, biotin-labeled); assay: ECL, IgG with biotinylated antigen
T4 construct: also called human CD137-Fc; biotin-human CD137-Fc

[8] = target: T5, biotin-labeled cynomolgus monkey CD137 fused to human IgG1 Fc fragment (cynomolgus monkey, UniProt Q07011 24-186 (human entry), limits assumed, biotin-labeled); assay: beads ELISA, biotin labeled cyno CD137-Fc
T5 construct: the assay used the fusion to human IgG1 Fc; also called cyno CD137-Fc
T5 chain: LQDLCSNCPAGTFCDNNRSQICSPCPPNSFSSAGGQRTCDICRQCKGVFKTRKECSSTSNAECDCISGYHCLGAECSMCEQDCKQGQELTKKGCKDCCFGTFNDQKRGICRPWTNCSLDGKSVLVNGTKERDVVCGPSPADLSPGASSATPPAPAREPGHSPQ

recombinant human CD3 = target: T6, recombinant human CD3 (human, UniProt P07766 23-126); assay: SPR (Biacore T200, 37 degrees C), antibody captured by anti-human Fc, antigen as analyte, 1:1 model
T6 construct: also called hCD3

recombinant human CD137 = target: T7, recombinant human CD137 (human, UniProt Q07011 24-186); assay: as above
T7 construct: also called hCD137

[9] = target: T3, CD3 epsilon peptide antigen; assay: ELISA, IgG supernatant, biotinylated antigen on streptavidin plate

B1: dBBDu193/L127 (antibody, V domains shown)
VH: QVQLVESGGGLVQPGRSLRLSCAASGFTFSNAWMHWVRQAPGKGLEWVAQIKDRSNQYATYYAPSVKGRFTISRDDSKNSIYLQMNSLKTEDTAVYYCHYVHYSAASTLLPSFGVDAWGQGTTVTVSS
VL: DIVMTQSPLSLPVTPGEPASISCRASEELLHINRHIFLHWYQQKPGQAPRLLIYKVYNRFTGVPDRFSGSGSGTDFTLKISRVEAEDVGVYYCAQGTSVPFTFGQGTKLEIK
notes: also called dBBDu_193 / dBBDu.L127
Signal decrease [1]: 59.4%
ELISA signal with Free CD3e 62.5 pmol [2]: 2470
ELISA signal with Free Fc 62.5 pmol [3]: 6080

B4: CE115HA000 V11L/D72A/L78I/D101Q without insertion, one-arm antibody (antibody, human IgG1, kappa, L234A L235A, N297A, name in Kabat numbering)
heavy: QVQLVESGGGLVQPGRSLRLSCAASGFTFSNAWMHWVRQAPGKGLEWVAQIKAKSNNYATYYAESVKGRFTISRADSKNSIYLQMNSLKTEDTAVYYCRYVHYGAYYGVQAWGQGTTVTVSSASTKGPSVFPLAPSSKSTSGGTAALGCLVKDYFPEPVTVSWNSGALTSGVHTFPAVLQSSGLYSLSSVVTVPSSSLGTQTYICNVNHKPSNTKVDKKVEPKSCDKTHTCPPCPAPEAAGGPSVFLFPPKPKDTLMISRTPEVTCVVVDVSHEDPEVKFNWYVDGVEVHNAKTKPREEQYASTYRVVSVLTVLHQDWLNGKEYKCKVSNKALPAPIEKTISKAKGQPREPQVYTLPPSRCELTKNQVSLSCAVKGFYPSDIAVEWESNGQPENNYKTTPPVLDSDGSFFLVSKLTVDKSRWQQGNVFSCSVMHEALHNHYTQKSLSLSPDYKDDDDK
chain: EPKSSDKTHTCPPCPAPELLGGPSVFLFPPKPKDTLMISRTPEVTCVVVDVSHEDPEVKFNWYVDGVEVHNAKTKPREEQYNSTYRVVSVLTVLHQDWLNGKEYKCKVSNKALPAPIEKTISKAKGQPREPQVCTLPPSRDELTKNQVSLWCLVKGFYPSDIAVEWESNGQPENNYKTTPPVLDSDGSFFLYSKLTVDKSRWQQGNVFSCSVMHEALHNRYTQKSLSLSP
light: DIVMTQSPLSLPVTPGEPASISCRSSQSLVHSNRNTYLHWYQQKPGQAPRLLIYKVSNRFSGVPDRFSGSGSGTDFTLKISRVEAEDVGVYYCGQGTQVPYTFGQGTKLEIKRTVAAPSVFIFPPSDEQLKSGTASVVCLLNNFYPREAKVQWKVDNALQSGNSQESVTEQDSKDSTYSLSSTLTLSKADYEKHKVYACEVTHQGLSSPVTKSFNRGEC
notes: one-arm antibody; also called No insertion
Kd [4]: 6.96 nM

B5: CE115HA000 (unaltered), one-arm antibody with GLS3000 (antibody, human IgG1, kappa, L234A L235A, N297A)
heavy: B4 heavy with L11V, A75D, I81L, Q110D
chain: B4 chain
light: B4 light
Kd [4]: 110 nM

B6: GPC3/CD137 × CD3 (other)
VH 1: QVQLQQWGAGLLKPSETLSLTCAVYGGSFSGYYWSWIRQSPEKGLEWIGEINHGGYVTYNPSLESRVTISVDTSKNQFSLKLSSVTAADTAVYYCARDYGPGNYDWYFDLWGRGTLVTVSS
VL 1: EIVLTQSPATLSLSPGERATLSCRASQSVSSYLAWYQQKPGQAPRLLIYDASNRATGIPARFSGSGSGTDFTLTISSLEPEDFAVYYCQQRSNWPPALTFGGGTKVEIK
VH 2: QVQLVESGGGLVQPGRSLRLSCAASGFTFSNAWMHWVRQAPGKGLEWVAQIKDRANSYNTYYAESVKGRFTISRDDSKNSIYLQMNSLKTEDTAVYYCRYVHYTTYAGSSFSYGVDAWGQGTTVTVSS
VL 2: DIVMTQSPLSLPVTPGEPASISCRSSQPLVHSNRNTYLHWYQQKPGQAPRLLIYKVSNRFSGVPDRFSGSGSGTDFTLKISRVEAEDVGVYYCGQGTQVPYTFGQGTKLEIK
VH 3: QVQLVQSGAEVKKPGASVTVSCKASGYTFTDYEMHWIRQPPGEGLEWIGAIDGPTPDTAYSEKFKGRVTLTADKSTSTAYMELSSLTSEDTAVYYCTRFYSYTYWGQGTLVTVSS
VL 3: B6 VL 2
Luminescence against CD137 positive cells relative to that against GPC3 positive cells, 1 nM [5]: ~107%
Luminescence against CD137 positive cells relative to that against GPC3 positive cells, 10 nM [5]: ~128%

B8: DADU01_3 #001 (antibody, human IgG1, V domains shown)
VH: QVQLVESGGGLVQPGRSLRLSCAASGFTFSIAWMHWVRQAPGKGLEWVAQIKDRVNAYEAYYAPSVKGRFTISRDDSKNSIYLQMNSLKTEDTAVYYCRYVHYASYYDLLGYGGVDAWGQGTTVTVSS
VL: B6 VL 2 with P28S
notes: VH in human IgG1 CH1-Fc plasmid; GLS3000 light chain; also called dBBDu_126; dBBDu126
binding result [8]: no binding (tested: 25 micro L of 50 ng/micro L purified IgG)

The remaining lines, values ahead:

Signal decrease [1]: 87%
ELISA signal with Free CD3e 62.5 pmol [2]: 9750
ELISA signal with Free Fc 62.5 pmol [3]: 75100
B2: dBBDu189/L126 (antibody, V domains shown)
VH: B1 VH with V48I, S104A, A105Q, T108S
VL: B1 VL with A25T, H35Y, Y57Q, T61S, T97S, S98A

Signal decrease [1]: 91%
ELISA signal with Free CD3e 62.5 pmol [2]: 10400
ELISA signal with Free Fc 62.5 pmol [3]: 116000
B3: dBBDu193/L132 (antibody, V domains shown)
VH: B1 VH
VL: B1 VL with R24Q, A25T, L30V, H35F, Y57S, T61S
notes: also called dBBDu_193 / dBBDu.L132

binding result [6]: binds
binding result [7]: binds
B7: dBBDu_011 (antibody, V domains shown)
VH: QVQLVESGGGLVQPGRSLRLSCAASGFTFSNAWMHWVRQAPGKGLEWVAQIKDKSSLYNTYYAPSVKGRFTISRDDSKNSIYLQMNSLKTEDTAVYYCRYVHYGASYGFLFAGYGVDAWGQGTTVTVSS
VL: B6 VL 2 with P28S
notes: Converted to IgG: VH joined to human IgG1 constant domains; also called clone 011

Kd (recombinant human CD3): 19.7 nM
koff (recombinant human CD3): 0.00161 s⁻¹
kon (recombinant human CD3): 81800 M⁻¹ s⁻¹
Kd (recombinant human CD137): 37.7 nM
koff (recombinant human CD137): 0.0206 s⁻¹
kon (recombinant human CD137): 547000 M⁻¹ s⁻¹
B9: GPC3/CD137xCD3 trispecific antibody (other)
VH 1: B6 VH 1
VL 1: B6 VL 1
VH 2: B6 VH 2
VL 2: B6 VL 2
VH 3: B6 VH 3
VL 3: B6 VL 2
notes: Made by Fab-arm exchange of mAb A (CrossMab, each arm carrying Fv A1 and Fv A2) with mAb B (conventional IgG); Fc is Fc gamma R silent (L235R, G236R, S239K) and deglycosylated (N297A); also called GPC3/CD137 × CD3; anti-GPC3/CD137×CD3

binding result [9]: binds
B10: dBBDu_115 (antibody, IgG1, V domains shown)
VH: B7 VH with S55A, S56N, L57S, A105S
VL: B6 VL 2 with P28S
notes: IgG1 format with GLS3000 light chain
